Results as given in the DeepSol protein solubility set.

Test: soluble on expression in E. coli; label from the status in PepcDB or PDB records

| Sequence | soluble on expression in E. coli |
| --- | --- |
| MLMRQVLEEACLKSGFEVNSHRLQTQSRKPIDSSLPFRLTGLANNATLEMTQKEAVSENTIIELAIQTASGARHQKKVGVNQMLLDALKSFTSEFKEDLATTIDGSVPCIVYMNKRYTGAELAVNSLSSLGVASGKCLIRHMRVKLSDQELATMQAKLQEENERKKALDVNFVKLKAENAERDRLERLRQEAFDKDKESREKREQEQLRALIPEPASNIQDSTVMDTTESQQRDVLQEVPEQNPNSWSFDGPAFSRQVPQNTMRMEELNRLLERVDHSLATPAVESRMDAMVNALADGGRISLAEVRTRADVAMEQEQEEDPVEVFANPCDRQAVIYKKRARVQTTDEPMETEEFFEVGIEDVRNMQKDLRKAVRDQTQASFISKEYLAKKNRQLKLEAYKHTVIRISIGEHILQVYFNTAEQSSNLDLFLNNVLTRSGWKLMFTNLKVVTNELKNFVDIELAPKSTLIASFGGQTVNAADVVHNVIEVTPEKADAMSADWLSLNKTFMPFNSTVNDDRKQKRPQFQSSSSSSHSGPPAKSAMPKWLQTGKK | not soluble |
| GMISPERLRVYRFFASLTDEQLKDIALISEEKSFPTGSVIFKENSKADNLMLLLEGGVELFYSNGGAGSAANSTVCSVVPGAIFGVSSLIKPYHYTSSARATKPVRVVDINGARLREMSENNQALGQVLMNNVAAAVLARLH | soluble |
| MSLPDEQGRRTVTLETAEEALLKRAVVYDHDGDEHYHVASALIKSIRGSDPDAALYWLARMLYAGEDPRFIARRLVISAAEDIGLADPQALVIAQAAADAVSFIGMPEGRIPLAEAVVYLACAPKSNSAYLAIDRALAVVEREKTPPVPNHLKDTGYGSDQRLGYGKGYQYPHDFPGAWVEQRYLPEGVDGPFWEPKGYGREAELARLLRERRGREGHHHHHH | soluble |
| MAPRQLAAADLAVGQVVAQREIRLDAQAFAQFAALTGDAHPIHYDAGYVQRQGLRAPIAHGLLLVAISALGATPLSAQLHDAMVAMVGVEAVFMRPVYVDETVQCVYRVAQIEHVAKGRSKTTIAVSIHTTDAPPDAARQAHCVVHLTFLLKTHLQGLEHHHHHH | not soluble |
| MSIQLNGINCFYGAHQALFDITLDCPEGETLVLLGPSGAGKSSLLRVLNLLEMPRSGTLTIAGNHFDFTKTPSDKAIRELRQNVGMVFQQYNLWPHLTVVQNLIEAPCRVLGLTKDQALARAEKLLERLRLKPYSDRYPLHLSGGQQQRVAIARALMMEPQVLLFDEPTAALDPEITAQIVSIIHELAETNITQVIVTHEVEVARKTASRVIYMENGHIVEHGDAGCFAHPQTEAFKNYLSH | not soluble |
| MAEVAPNSTLYINNLNEKIKIDELRKSLVAVFKQFGEIVSVMCFRTLKMRGQAHVIFKELPAASAAREALNGFPFYEKPMRIQFAREDSDVVAQEKGTYIKREPKYLSEKILKKPKSRKKENGGDGPAPPNKILFCTNLPDSATAEMLEIMFNQFAGLKDIRMVPNRPGIAFVEFDTDSLAIPARTTLNNFKISAEHTMRVDYAKK | soluble |
| MSRRHSVVDAYSTVEGKIRDTMRELSALWDEVDMSEAMRLKRVDNAFTHITLLCDDMLSGEKEMIHNLKVSIREDMQNVKKMRLELEMEDFQRPAEIKDGSIALMRHLQSEVKSLETEFQTRHEDQRVLIEKICNLKKRLESDFEFEYEIHAKLNFDTDLPPCMSPATSEMISFITPTRRQAVGPKTSSPKDTQPSTSSSSRTTTPMSKRAMTPSSIASSTPSSAKKVLTRRNQFL | not soluble |
| MKYDDTINIAFFGLDRRQKTDISRSDSIMILTMDPTHKKLKLSSIMRDTYVNVDGHGMTKITHAYAYGGPQLAIKTINENFNLNIKDYVTVDFYGLEKIIDKLNGVEVDVQPDEVNYLNSYIDEVSKYEKVTPNHVSSAGKQLLDGRQAVAYSRIRYTAGGDFQRTERQRTVLMAVFNKMKAQGKSNMLSMMDELLPYAETDLGSLDIAKYGAKFLSSNIDSIDQERFPVDGYCSGITVDNVWYLKTDLGVTSDQMKKYIFEDVKPTPKASLVNIPAKLEHHHHHH | soluble |
| MADKLDEIIDKVASGQRKKDTIEDTEEEGTRKRKIEQFEDIERPNELSGFKKQKIEENSEIHAEETEESVEAQMVMKKPSEEPELKRRKILIHMEPSITETNPMRIWTVADDLALLTAVAHVQCIRFIHNSLTFSRKFTFSDVEERYCQLMFDEEISKSAKVRLDAMPHRLKAQIEARTPFTRNEERTLMELAENQLKNARKERQDVENHTVLTILHFKKILDGNRQSFHKSRTPQVLSDHYRRIKGYRSEQGNNYNWQALEALTDGNTMDFDINAPLQAARSRYAAISRRPALSGILNRFKTSGSVPDNAIAMINGQFLQYAMTGKSVTMGRASLNEKIDIDLSKEGPATKVLEGRRQLFPVNKR | soluble |
| MIEFFLPMDKIPTTTHQQKKVTVINGKPHFYEPESLKNARDKFTSLLAQHVPPSKLDGPIRLTVKWLFPKIKGSTNGQYKTTKPDTDNLQKLLKDCMTELGFWNDDAQVASEIIEKFWADTVGIYVKVEEL | not soluble |
| MYFLTSSLPTTLMNVALTSWARAFAINVFPQPGGPYKRTPFGGSIPTSSKSSGCLRGSSMASLNSCSCFFKPPISLYVTFGLSMTSNPSTVGSLDVGSISTTAIVLLEHHHHHH | not soluble |
| MQVFIMRHGDAALDAASDSVRPLTTNGCDESRLMANWLKGQKVEIERVLVSPFLRAEQTLEEVGDCLNLPSSAEVLPELTPCGDVGLVSAYLQALTNEGVASVLVISHLPLVGYLVAELCPGETPPMFTTSAIASVTLDESGKGEFNWQMSPCNLKMAKAI | soluble |
| MAHHHHHHMAFTGPNPSIWVGGLDPDLQEQKLYDYFVRIGPVTSVRVCVDSATQKSLGYGYVNFQDPADAEKALDQAGSKLGSRYLRIAKIQRDPSKRRSGVNNILVKKLPKSVDTYALKEMFSKFGRLTAIGLACDEKGESRGYARISFEREESAVDAVREMDGMEMDGQAIVVERYQAQHRDELLKQFTNLYVKNLDPAVTDEKLRAFFAKYGEVSSAKVRDLGAAQSEAGLGYVAFQKHENAARAVEELNGKECEIAKAGSPLDVSRFRSREERQRDRERQRRERAQQHSKYPNLYVKGFDDTVTSERLEELFQRYGETVSVTVMMDKETGVSRCFGFVSMKDQNAASQAIQELNGSTFLSPRPLFVTYALRKDARRQNLEERSKQFRVRQNPMGGPGMGAMPPIGFMGPQMFNNVNMPFMNPRVPIMPMNGMNGIGGMNGMGGMNGVGGVGGMGGMGGMGGMGGMGGMGGMGGMGSMGGMGGMARPMAPNAMSQMRSRPMPQKPPMQSLMPQQHQQAPPQGQNLAAVLANLNPEQQKNVLGERLYSYIVRSHPSVAAKITGMLLEMDNAEILNMLDSPTMLDSKIAEAQDVLNRHMSV | soluble |
| MAHHHHHHMTMAVDSHDPSVRYLFFEEQRQQKQQKQQVPVDGTSSGSLPLLYSARPACHPVDDVRSAAALRRITEGFLNLDQQMKMWRRHLHRKLGNLESRLSRCESVLLQKKTPVPQPAVVKASTTTYNDIYDGVEDEFKRLHLTVTALREKAAECCRDGQSFFPPKRQGKKGKGEPAGKHAMCDDEDVSIEGGGVFDSHCEHVGVAKRMSPTADTTAVGSGESVGLTPDGAEMPSACLFLGETVVDGDWQHVEGMQPREASCCLYKLQNQSSFQPTPSFSTMTPVSEQKYFAMDSTCRHDWSPFIHEPCRPEKRIVRGGKPATMDKTPTNVPDLRMRSTATTTQEKCCEINESPLVQASSLERRLIYSPETPKRMQGQVSPVPSDAARSASSSTKRGMEIPLSNADSVEHLHNLAEPALSSKPVTNGQKRPDATPSSQHGGAFVDAFASAVAGVPSSSPLYVLPQQIYSSRGNSCDRSSEWDNTEDEEKASESSNEEVLSAVALSMPTVGTVWQRVVSLAHAEQYYDQLSRLNHPPLSMLSSDTLEISELTVQET | not soluble |
| MIKEAIKQLAQDIGISKIGFTTADDFDYLEKSLRASVEEGRSSGFEHKNIEERIKPRLSLASAKTIISIAIAYPHKLPVKPPKTQYKRGKITPNSWGLDYHYVLEEKLQRLAQGIESLCQDFPLEHKIMVDTGALVDTAVAQRSGIGFIGKNGLVISKEFGSYMYLGELITNLEIEPDSPVDYDCGDCHRCLDACPTSCLLGDGSMNAKRCLSFQTQDKGMMDLEFRKKIKTVIYGCDICQICCPYNKGIHNPLASEIDPELAEPELLPFLELSNSQFKKKFGMIAGSWRGKNTLQRNAIIALANGHDKSALVKLMEIIDKNNNPIHTATAIWALGEIVKKPTQELYDFILSIHSDNDAIIKERTALLNRWQF | not soluble |
| MGSDKIHHHHHHMQRVRQICVVGGSGFVGSALVHRLSTAGYDVKVLTRRRESSKHLILLPNVQVTECDVFNEASLSGQLHGQDAVINLAGILHESGNATFESIHVDLATRIADICCKQGVPRLLHMSALKASADAKSAYLRSKAAGEQAVLRRADELQVTVFRPSVIFGRGDHFLSMLANVVNMMPVVAVAKPNAKFQPIWVEDVAYVFLTALENVSTYGRSIDLGGPQVYTLKQLIELTALLLGKKRRIVSLNDKLSYYQAYALELMPFKLMTRDNLLSMEVDSVCDGPISEFFGHSLASLEAIAPEYIAGETPRSAYERFRSLAGRTFSRR | not soluble |
| FMQDFEDIQKDIEQLDIKCAHEQMNIQKQYDEKKKPLFEKRDEIIQKIPGFWANTLRKHPALSDIVPEDIDILNHLVKLDLKDNMDNNGSYKITFIFGEKAKEFMEPLTLVKHVTFDNNQEKVVECTRIKWKEGKNPIAAVTHNRSDLDNEIPKWSIFEWFTTDELQDKPDVGELIRREIWHNPLSYYLGLEE | soluble |
| MSLKKITMIQTQKKVGRFNIYINNKYAFPVSESILIKYRLHKGQELDENLIEEIKLADDISKGYNAALNYLSYQLRTRKEVEDKLRSLDIHEDYISEIINKLIDLDLINDKNYAESYVRTMMNTSDKGPKVIKLNLSKKGIDDNIAEDALILYTDKLQVEKGVTLAEKLANRYSHDSYRNKQNKIKQSLLTKGFSYDIIDTIIQELDLIFDDEGHHHHHH | soluble |
| AHHHHHHGSKVYAPATIANFGPGFDVFGLAIETPRDTVIAKESDDFRIEVEGYKVPENDENVALVAAKALFKLVGEEGGIYLKLKKGIRPKSGLGSSGASSIAGAVAAARILGVEDDEIIIRAALEGERKASGSPHGDNVVPSYYGNFTIVESLNPLRVHNIEVDFKVVVILPSVEVPTSEARKVLPKKVPLKDAVKNIALASSLVLALKEGNLEEVGRLLEDHLALPYRLSLVPWFPKVKEAAKEAGAYGVMISGSGPAVFALGENLKEIGKAMKEAFESFGIEAEYWVTKVGRGAKWC | not soluble |
| MGSDKIHHHHHHLADVIYQAQPPLEFIPPAFNPLFLRFVHLLLPSWINWQTPITQIEADNVEVLVDLYRQFQEGKIRFMLAFRHPKTDDPFCLAYLLSQLVPKIARSQGTTLQLPIHAHFIYDRGIPLWAGSYVGWIASRLGGTPIQRGKADWTGLRSARDLFANGKFPMAAAPEGATNGLSENISPLEPGIAQLGFWCAEDLHKAERPEQVLIVPVGIKYSYVDAPWDAIANLLSELEAASGLPVNSAENASIESLYPRLLALAEHLLLLMEEFYTRFYHQKLPDSKIVNGQIPDRNEALAVRLQALLNAALLISEQYFNLQSKGSLSDRCRRVEQAGWNYIFREEFKDVKGVSAVERALGDRVAEEANARMWHMRLVESFVAVSGNYIRENPTVERFAETTLILWQMIAKIKGDKGVQRPQLGKQKVKITVGEPISISEHYPAYKENRLGARQAVADVTNDLQHALEGLI | not soluble |
| GMEQATRTIYSEYAAYPETQGIIAVEKRQPRDSLTDQFDVLLLVITRDPSVEWTVKHYRLNTLRVSLHLVHEQVLSRWLILNANRRAVHWVSEGTIIFERNDYLTDLKKQLRNFPETERCLQMSLSFAKLLRRFQDGRNLFSRGNYYDAYTHVHHALHHLARLSVLEKGAHPEVVVWEQARLDDPDVYKLYEQLLLSEETLEQRIHLALIGLEHLLQSKVLSGGKYLFEVMRERDRPWTMHELMEESRLTELKVDLGSLVDFFIRKGLIRISYQRTKGLGVELVTYEPVV | soluble |
